Assay: soluble on expression in E. coli; label from the status in PepcDB or PDB records

Sequence	soluble on expression in E. coli
IVSFYQEQIIRSALALKLHQYEDTGGIIAAGTTSLPESDGATRNWDYRYCWMRDTYYTLQAFNTIGHFEESEKYFHYIENIVANELDRIQPLYTLDCSKKIEEIELDLEGYKGNKPVRVGNDAYTHIQNDVYGQILASITPLFTDRRLLHGNQFSTDIVYKLLAFIDKTMNEKDAGLWEFRHLKQLHCYTFLFHWVGAKSALKIGQLYGDHELIRKSTATIDKAAEMIERCYDPVRKVYTQAVGSTYLDASCIQLISMHYLDPSSEKARLHLKAIEEDLMVKDGLLFRYKHEDDFGKPEVTFLVCAFWYVDALASVGRIDDAIKAFESLLTYTNHVGLLSEDVGLDGSQWGNFPQTYSHVGLMNSAYRIAKKLDRPS	not soluble
KALYSKPGSKNGRWNPETHKFCKCGVRIQTSAYTCSKCRNRSGENNSFFNHKHSDITKSKISEKMKGKKPSNIKKISCDGVIFDCAADAARHFKISSGLVTYRVKSDKWNWFYINA	soluble
KDWEKVVYGFATLYICSFVLDQVVNSARQSVQFFIISNKYEEIGRHINEYPHRGVTIINATGFYTGREVKMMFVLAKKRESTIIFRLIKDIDPNAFVSQSAVIGVYGEGFDHIKVK	not soluble
KDWTQYVNPLMGSQSTFELSTGNTYPAIARPWGMNFWTPQTGKMGDGWQYTYTANKIRGFKQTHQPSPWINDYGQFSIMPIVGQPVFDEEKRASWFAHKGEVATPYYYKVYLAEHDIVTEMTPTERAVLFRFTFPENDHSYVVVDAFDKGSYIKIIPEENKIIGYTTRNSGGVPENFKNYFIIEFDKPFTYKATVENGNLQENVAEQTTDHAGAIIGFKTRKGEQVNARIASSFISFEQAAANMNELGKDNIEQLAQKGKDAWNQVLGKIEVEGGNLDQYRTFYSCLYRSLLFPRKFYELDANGQPIHYSPYNGQVLPGYMFTDTGFWDTFRCLFPLLNLMYPSVNKEMQEGLINTYLESGFFPEWASPGHRGCMVGNNSASILVDAYMKGVKVDDIKTLYEGLIHGTENVHPEVSSTGRLGYEYYNKLGYVPYDVKINENAARTLEYAYDDWCIYRLAKELKRPKKEISLFAKRAMNYKNLFDKESKLMRGRNEDGTFQSPFSPLKWGDAFTEGNSWHYTWSVFHDPQGLIDLMGGKEMFVTMMDSVFAVPPIFDDSYYGQVIHEIREMTVMNMGNYAHGNQPIQHMIYLYDYAGQPWKAQYWLRQVMDRMYTPGPDGYCGDEDNGQTSAWYVFSALGFYPVCPGTDEYVMGTPLFKKATLHFENGNSLVIDAPNNSTENFYIDSMSFNGADHTKNYLRHEDLFKGGTIKVDMSNRPNLNRGTKEEDMPYSFSKELEHHHHHH	soluble
KFDESALVPEDQFLAQHPGPATIRVSKPNENDGQFMEITVQSLSENVGSLKEKIAGEIQIPANKQKLSGKAGFLKDNMSLAHYNVGAGEILTLSLRER	soluble
KGDDTYYIIFTSGTTGKPKGVQISHDNLLSFTNWMINAEAFATPHRPQMLAQPPYSFDLSVMYWAPTLALGGTLFALPKEITADFKQLFTTINQLPIGVWTSTPSFVDMAMLSDDFNAQQLPHLTHFYFDGEELTVKTAKKLRQRFPQARIVNAYGPTEATVALSALAVTDKML	not soluble
KKPEGKPDQKFDQKQELGRVIHLSNLPHSGYSDSAVLKLAEPYGKIKNYILMRMKSQAFIEMETREDAMAMVDHCLKKALWFQGRCVKVDLSEKYKKLV	soluble
KKQITVLDLHPGAGKTRRILPQIIKEAINRRLRTAVLAPTRVVAAEMAEALRGLPIRYQTSAVAREHNGNEIVDVMCHATLTHRLMSPHRVPNYNLFVMDEAHFTDPASIAARGYISTRVELGEAAAIFMTATPPGTSDPFPESNAPISDLQTEIPDRAWNSGYEWITEYIGKTVWFVPSVKMGNEIALCLQRAGKKVIQLNRKSYETEYPKCKNDDWDFVVTTDISEMGANFKASRVIDSRKSVKPTIITEGEGRVILGEPSAVTAASAAQRRGRTGRNPSQAGDEYCYGGHTNEDDSNCAHWTEARIMLDNINMPNGLIAQFYQPEREKVYTMDGEYRLRGEERKNFLELLRTADLPVWLAYKVAAAGVSYHDRRWCFDGPRTNTILEDNNEVEVITKLGERKILRPRWIDARVYSDHQALKSFKDFASGKR	soluble
KLLEHVRNILPPNITCLYIRQAEALGLGHAVLCARAAIGDEPFAVILADDLIDAPKGALKQMVEVYGRSGNSILGVETVEASQTGSYGIVETEQLKQFQRITGIVEKPKPEDAPSNLAVVGRYILTPRIFDLLTNLPRGAGNEIQLTDGIAKLLDHEFVLAHPFEGTRYDCGSKLGYLEATVAYGLKHPETGEPFRRLLEKYRTE	not soluble
KMGKTPKTEILSFEQYQVTPYLSGLLELDPDTEVFELERLRIADDMPLMFERSYIPAQPFQGLSIADLKRKALYDIFAKDYQETIRLAEEEFYASIALDYEAGLLGIKKGDPVLHIIRKTYNDKNILIELTFSIARADQFRYRVQHHPNG	not soluble
KNASVITVGNEILKGRTVNTNAAFIGNFLTYHGYQVRRGFVVMDDLDEIGWAFRVALEVSDLVVSSGGLGPTFDDMTVEGFAKCIGQDLRIDEDALAMIKKKYGQADLTPQRLKMAKIPPSCRPIENPVGTAPGLICAVGGKKVIILPGVPKEMEALLKAMEKDIIIPD	soluble
KPTAEVVPVNRGFHFQTNKVPSESDVFKHNYDLTFSLNFTNKSNDIYGTGWLFDWKGDEKALGIDGSFVPSITSNIDNSLLKDDQFTVYLATNLHVADALRNDQDYEPYKKDQNKQDFTENTKTEFFSLGKYLEGEQLKQYISKEENQSANQTDKALVSIQASNIPKTAYTATDFVDMNSYSYNNITTSLPGNYADFAVI	not soluble
KQAQVDYLALPGDAKLDTRSVDYKCENGRKFTVQYLNKGDNSLAVVPVSDNSTLVFSNVISASGAKYAAGQYIWWTKGEEATLYGDWKGGEPTDGVACKER	soluble
KQWVWSAESPIETNILKLLPKNQQNPVAEQAFESVSASMSDKVIFVITAPDKNALFAAAAEFDKGLRQSNHFRDVVGKISPQEQQAWASYYFKHRFQLLTPEQRERLSQNPEQQVQHVIQSLYNPFSGVTGQELQSDPFLLFRDYLSQVTQQSSSFRLDNGYLSVEKDGAQYLLITAELKESPYSLTGQLAVPDIQALEQSVAQKYGAEVAHTGVLFYADFGTQSAKSE	soluble
KRAVDARTVGRMIRMSGCPDESASAKAVDWFVLMFMLRGIPFVDLAHLRRSNLDKGVLTYCRHKTGQEVSISVPREAMEIINRRMVENCHPSYLLPILGQPRTRKRHTKKALTPYQEYQYALRNLNRRLERVSVDLRLGGRLSSYTARHTWATIAFHQETPVGVISRGLGHSSVKVTETYLKPFGDREVDRTNRKILNYVLNAV	not soluble
KTDDPRFKIYKLAYSAFLSRITVKDVIWNKDKGIKLMDGYYWDFINDPHLLVAGGTGGGKTVLLRSILRCLAEIGVCDICDPKRADFVTMSDLSAFEGRIAFEKADIIEKFENAVTIMFARYDFVRNEMKRLGHKDMKKFYDYGLEPYFFVCDEYNALMSSLSYQEREIVDNAFTQYILLGRQVGCNAIIAMQKPSA	not soluble
KTDPRSMNSRVFIGNLNTLVVKKSDVEAIFSKYGKIVGCSVHKGFAFVQYVNERNARAAVAGEDGRMIAGQVLDINLAAEPKVNR	soluble
KVMMPKVEERDDSEAPKAFFSEYEICNPALDGKSVREVALLLKRPFVITRVWHNGKVEIPTSDMILYFGDHILAVSGEEDTSQLEILFGKREMKDWNRPDIDWNSVDKQLVSRRLVITRPKLNGVRLGMLKIRNLYGVNISRVDRAGVELLPDRDLRLQLGDRLTVVGEGKAVERVAEILGDEVKQLDNPH	not soluble
LALLYEVTCLNKPGLVDPVDAGAHQDMDVFTFLESSVVLTPYFETFVQAGTELRHLPIEATFRTIRQVGLEAERAMFEATEGINTHKGAIFSLGIFLAVCGRLMIWETPCTLQLFQQTLQTMTQDLLADFENLATNELEKLTWGERLFVQHGLTGIRGEAQQGYPAVFEQGVPYYQKHQGTQQQKLIDTLLYLSLYVEDTNLIKRSQNVQIFEVYQPLIQEYFALGGTQTLRGTLCLERLNHLFKEKNWSIGGSADALILVV	not soluble

Source: the DeepSol protein solubility set
